Reference: patent publication US12065507B2 (priority 2020, dated 2024)
Where two headings read alike, the source gives them in different places.

What was measured:
[1] = Competitive binding of [H^3]-morphine against naloxone
[2] = Competitive binding of [H^3]-morphine against meperidine; conditions: read-out: Kd, meperidine; from IC50 against 2 nM [H^3]-morphine
[3] = Competitive binding of [H^3]-morphine against naltrexone
[4] = Competitive binding of [H^3]-morphine against oxycodone; conditions: read-out: Kd, oxycodone; from IC50 against 2 nM [H^3]-morphine
[5] = read-out: Kd, morphine; 2 nM [H^3]-morphine, room temperature, 60 minutes, pH 7.4
Protocol: The binding constant of the antibody with [H^3]-morphine were tested using liquid scintillation counting. Briefly, 2 nM [H^3]-morphine was incubated with different concentration of antibody at room temperature for 60 minutes. The total volume of mixture was 100 and pH was 7.4.

[6] = cited from earlier work
[7] = collected from the references cited; read-out: Activities (Kd), Morphine; cited from earlier work
[8] = mice; cited from earlier work
[9] = 10 μM competing drug, 60 nM antibody, 2 nM [H^3]-morphine
[10] = collected from the references cited, read-out: Activities (Kd), 6-MAM

B1: UK6Mab02: fully humanized antibody (H1L3) designed from Ab13, with human IgG1 heavy and kappa light constant regions (antibody, V domains shown)
VH: EVQLVQSGAEVKKPGASVKISCKASGYTFTSYWIEWVKQAPGKGLEWIGEINPSGGSTIYAEKFQGRATFTADTSTSTAYMELSSLRSEDTAVYYCARWVLDYYGMDYWGQGTSLTVSS
VL: QAVVTQEPSLTVSPGGTVTLTCGSSTGAVTSGNYANWVQQKPGQAFRGLIGGTNTRSSGVPDRFSGSLLGGKAALTISGAQPEDEAEYYCALWYSNKLVFGGGTKLTVL
modifications: H1 (UK6Mab02) Heavy Chain; L3 (UK6Mab02) - Light chain
Binding with naloxone in initial screening [1, 9]: did not show significant binding affinities | Kd ([1]; read-out: Kd, naloxone, from competition with 2 nM [H^3]-morphine): > 10000 nM | Kd [2]: 15700 nM | Binding with naltrexone in initial screening [3, 9]: did not show significant binding affinities | Kd ([3]; read-out: Kd, naltrexone, from competition with 2 nM [H^3]-morphine): > 10000 nM | Kd [4]: 6910 nM | Kd [5]: 127 nM

B2: Ab17: known 6-MAM-specific mAb 6-MAM-214; heavy chain SEQ ID NO: 29, light chain SEQ ID NO: 55 (antibody, V domains shown)
VH: EVQLVESGGGLVQPGRSLRLSCAASGFSFGDYAIHMVRQAPGKGLEWVSGISWDSYTTGYADSVKGRFTVSRDNAKNSLYLQMNSLRPEDTAVYYCAKAPSPRRVIIEYFDSDYWGQGTSLTVSS
VL: QSALTQPASVSGAPGQTVSISCTGWSSNIGAGYDVHWYQQLPGTAPKLLISHNTNRPSGVPDRFSGSKSGTSASLAITGLQAEDEADYYCQSYDSTLGVVVEGGGTICLTVL
modifications: Ab17 - Heavy chain; Ab17 - Light chain
Kd [6, 10]: 300 nM | Kd ([6]; literature value, read-out: affinity for 6-MAM): 300 nM | Kd [7]: > 10000 nM | Effect on acute heroin effects [8]: able to reduce the acute heroin effects in mice

B3: Ab22: known anti-6-MAM antibody 6-MAM-108; heavy chain SEQ ID NO: 34, light chain SEQ ID NO: 60 (antibody, V domains shown)
VH: EVQLVESGGGLVQPGRSLRLSCAASGFSFGDYAIHMVRQAPGKGLEWVSGISWDSYTTGYADSVKGRFTVSRDNAKNSLYLQMNSLRPEDTAVYYCAKAPSPRRVIIEYFDSDYWGQGTSLTVSS
VL: QSVLTQPPSVSGAPGQRVTISCTGSSSNIGAGYDVHWYQQLPGTAPKLLWGNSNRPSGVPDRFSGSKSGTSASLAITGLQAEDEADYYCQSYDSSLSGVVFGGGTKLTVL
modifications: Ab22 - Heavy chain; Ab22 - Light chain
Kd [6, 10]: 170 nM | Kd [7]: > 10000 nM

B4: Ab19 (antibody, V domains shown)
VH: EVQLVESGGGLVQPGRSLRLSCAASGFSFGDYARIMVRQAPGKGLEWVSGISWDSYTTGYADSVKGRFTVSRDNAICNSLYLQMNSLRPEDTAVYYCAKAPSPRRVIIEYFDSDYWGGTSLTVSS
VL: QSVLTQPPSVSGAPGQRVTISCTGSSSNIGAGYDVHWYQQLPGTAPKLLIYGNSNRPSGVPDRFSGSKSGTSASLAITGLQAEDEADYYCQSYDSSLRGVVFGGGTKLTVL
modifications: Ab19 - Heavy chain; Ab19 - Light chain
Kd [6, 10]: 160 nM | Kd [7]: ≥ 10000 nM

B5: Ab24: known anti-6-MAM antibody 6-MAM-120; heavy chain SEQ ID NO: 36, light chain SEQ ID NO: 62 (antibody, V domains shown)
VH: EVQLVESGGGLVQPGRSLRLSCAASGFTFGDYAIHMVRQAPGKGLEWVAGISWDSYTTGYADSVKGRFTVSRDNAKNSLYLQMNSLRPEDTAVYYCAICAPSPRRVIIEYFQYDYWGQGTSLTVSS
VL: QSALTQPASVSGAPGQRVTISCTGSSSNIGAGYDVHWYQQLPGTAPKLLIYGNSNRPSGVPDRFSGSKSGTSASLAITGLQAEDEADYYCQSYDSSLSGVVFGGGTKLTVL
modifications: Ab24 - Heavy chain; Ab24 - Light chain
Kd [6, 10]: 250 nM | Kd [7]: > 10000 nM

B6: Ab21: known anti-6-MAM antibody 6-MAM-103; heavy chain SEQ ID NO: 33, light chain SEQ ID NO: 59 (antibody, V domains shown)
VH: EVQLVESGGGLVQPGRSLRLSCAASGFSFGDYAIHMVRQAPGKGLEWVSGISWDSYTTGYADSVKGRFTVSRDNAICNSLYLQMNSLRPEDTAVYYCAKAPSPRRVIIEYFDSDYWGQGTSLTVSS
VL: QSALTQPASVSGAPGQRVTISCTGSSSNIGAGYDVHWYQQLPGTAPKLLIYGNSNRPSGVPDRFSGSKSGTSASLAITGLQAEDEADYYCQSYDSSLSGVVFGGGTKLTVL
modifications: Ab21 - Heavy chain; Ab21 - Light chain
Kd [6, 10]: 100 nM | Kd [7]: > 10000 nM

B7: Ab20: known anti-6-MAM antibody 6-MAM-102; heavy chain SEQ ID NO: 32, light chain SEQ ID NO: 58 (antibody, V domains shown)
VH: EVQLVESGGGLVQPGRSLRLSCAASGFSFGDYAIHMVRQAPGKGLEWVSGISWDSYTTGYADSVKGRFTVSRDNAKNSLYLQMNSLRPEDTAVYYCAKAPSPRRVHEYFDSDYWGQGTSLTVSS
VL: QSALTQPASVSGAPGQRVTMSCTGSSSNIGAGYDVHWYQQLPGTAPKLLIFGNTNRPSGVPDRFSASKSGTSASLAITGLQAEDEADYYCQSYDNSLSGVVFGGGTKLTVL
modifications: Ab20 - Heavy chain; Ab20 - Light chain
Kd [6, 10]: 170 nM | Kd [7]: > 10000 nM
